Measurements: patent US20210347858A1

Molecular target: human ACE2 receptor protein (hACE2) pre-coated on the plate of the GenScript sVNT C-Pass Kit (human) (UniProt Q9BYF1)
Assay: modified GenScript sVNT (FIG. 28), competitor HRP-RBD

Sequence of UniProt Q9BYF1 (Q9BYF1 18-740 limits assumed): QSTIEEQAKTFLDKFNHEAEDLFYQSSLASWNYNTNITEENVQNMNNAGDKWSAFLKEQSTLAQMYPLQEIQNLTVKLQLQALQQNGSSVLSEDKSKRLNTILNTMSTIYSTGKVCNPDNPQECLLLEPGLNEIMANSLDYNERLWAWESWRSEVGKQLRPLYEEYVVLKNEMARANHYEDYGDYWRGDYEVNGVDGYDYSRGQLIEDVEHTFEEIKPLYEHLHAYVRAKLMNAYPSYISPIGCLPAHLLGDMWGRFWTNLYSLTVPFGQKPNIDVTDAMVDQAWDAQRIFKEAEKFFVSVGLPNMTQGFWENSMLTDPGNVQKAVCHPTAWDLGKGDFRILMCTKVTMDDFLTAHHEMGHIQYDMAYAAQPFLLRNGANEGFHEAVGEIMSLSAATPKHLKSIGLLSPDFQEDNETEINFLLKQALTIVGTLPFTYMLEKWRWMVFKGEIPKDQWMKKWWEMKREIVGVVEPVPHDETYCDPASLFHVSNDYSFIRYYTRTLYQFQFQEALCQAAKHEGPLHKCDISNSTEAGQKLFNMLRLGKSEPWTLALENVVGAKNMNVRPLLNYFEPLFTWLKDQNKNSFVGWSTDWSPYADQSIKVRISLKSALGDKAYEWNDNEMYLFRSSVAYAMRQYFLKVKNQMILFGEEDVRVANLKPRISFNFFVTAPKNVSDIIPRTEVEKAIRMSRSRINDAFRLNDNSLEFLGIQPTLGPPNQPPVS

## Serum from uninoculated (non-targeted) chickens (antibody)
  percent inhibition of RBD:ACE2 binding: < 5%
